Measured values: paper PMC8563730, “CryoEM structure of the outer membrane secretin channel pIV from the f1 filamentous bacteriophage” (Nature Communications, 2021)

Target: the molecule itself
Assay: cryo-EM structure; purified f1pIV (~0.7 mg/ml) in 1% CHAPS, 25 mM Na HEPES pH 8.0, 500 mM NaCl, 0.5 mM EDTA, on graphene oxide-coated lacey carbon grids; 2D class averages and a 3D reconstruction with C15 symmetry, 2.7 Å

B1: f1 pIV secretin (His-tagged f1pIV with the stabilizing S318I mutation) (natural protein, bacteriophage f1, UniProt P03666 22-426, looked up)
chain: QVIEMNNSSLRDFVTWYSKQTGESVIVSPDVKGTVTVYSSDVKPENLRDFFISVLRANNFDMVGSIPSIIQKYNPNNQDYIDELPSSDNQEYDDNSAPSGGFFVPQNDNVTQTFKINNVRAKDLIRVVELFVKSNTSKSSNVLSVDGSNLLVVSAPKDILDNLPQFLSTVDLPTDQILIEGLIFEVQQGDALDFSFAAGSQRGTVAGGVNTDRLTSVLSSAGGSFGIFNGDVLGLSVRALKTNSHSKILSVPRILTLSGQKGSISVGQNVPFITGRVTGESANVNNPFQTVERQNVGISMSVFPVAMAGGNIVLDITIKADSLSSSTQASDVITNQRSIATTVNLRDGQTLLLGGLTDYKNTSQDSGVPFLSKIPLIGLLFSSRSDSNEESTLYVLVKATIVRAL
notes: pIV secretin (gene IV protein, virion export protein) of filamentous bacteriophage f1; mature protein of 405 residues (N0 1-88, linker 89-107, N3 108-172, linker 173-174, secretin domain 175-405); S318 is residue 339 of the precursor (318 + 21 signal residues); also called f1pIV secretin channel; copies: 15
Which “stoichiometry N” value does the source give for B1 here?
The value was 15.
